Data on two proteins can be found in PMC3413214, “Structural and biochemical characterization of a trapped coenzyme A adduct of Caenorhabditis elegans glucosamine-6-phosphate N-acetyltransferase 1” (Acta Crystallographica Section D: Biological Crystallography, 2012).

Series [1] concerns the molecule itself. Kind of series: SEC; Superdex 75 26/60 gel-filtration column in buffer A (25 mM Tris-HCl pH 7.5, 250 mM NaCl, 2 mM EDTA); elution profile. A general note: In gel filtration, larger molecules generally elute earlier.
Series [2] concerns the molecule itself. Kind of series: crystal structure; sitting-drop vapour diffusion, 0.1 M Tris-HCl pH 8.5, 0.2 M sodium acetate, 30% PEG 3350, 11 mM BaCl2, 293 K; orthorhombic P2_1 2_1 2_1 form (1.75 Å, CoA and GlcNAc-6P bound) and hexagonal P6_1 form (1.55 Å, Cys141-CoA adduct); two subunits A and B in each.

A word on the stoichiometry N: it is a count of units in the complex or per binding partner.

B1: Caenorhabditis elegans glucosamine-6-phosphate N-acetyltransferase 1 (enzyme, UniProt Q17427 1-165, looked up)
chain: MSHIFDASVLAPHIPSNLPDNFKVRPLAKDDFSKGYVDLLSQLTSVGNLDQEAFEKRFEAMRTSVPNYHIVVIEDSNSQKVVASASLVVEMKFIHGAGSRGRVEDVVVDTEMRRQKLGAVLLKTLVSLGKSLGVYKISLECVPELLPFYSQFGFQDDCNFMTQRF
notes: glucosamine-6-phosphate N-acetyltransferase 1 (GNA1) of Caenorhabditis elegans, full length, 165 amino acids per monomer; amplified from C. elegans cosmid B0024 DNA; Cloned into pGEX-6P-1 by BamHI and EcoRI; a few vector residues probably remain at the N-terminus after PreScission cleavage (surmised); In the orthorhombic crystal it holds CoA and GlcNAc-6P non-covalently; also called CeGNA1; GNA1; …
In the case of B1, the “stoichiometry N” value in series [1] came out at 2.

B2: CeGNA1–Cys–CoA adduct (enzyme, Caenorhabditis elegans, UniProt Q17427 1-165, looked up)
chain: B1 chain
modifications: Cys141 linked by a disulfide to coenzyme A
notes: glucosamine-6-phosphate N-acetyltransferase 1 (GNA1) of Caenorhabditis elegans, full length, 165 amino acids per monomer; same construct as m1; Same polypeptide as m1; differs only by the covalent CoA on Cys141, which DTT releases; also called CeGNA1–CoA adduct; covalent CoA complex; source: E. coli BL21 (DE3) pLysS, purified; adduct formed in the hexagonal (P6_1) crystals grown with acetyl-CoA, …
Consider B2, for which the binding result in series [2] is “binds”.
